Measurements as given in PMC4491177, “Co-translational capturing of nascent ribosomal proteins by their dedicated chaperones” (Nature Communications, 2015).
Changes are numbered by the printed parent chain. Numbers in names are those of the source. Ends that are not written are not given here.

Legend:
[1] = target: T1, ScSqt1.53C (WD-repeat β-propeller domain of Sqt1) (Saccharomyces cerevisiae, UniProt P35184); test: isothermal titration calorimetry (ITC), S. cerevisiae; type: binding; details: for K / N / ΔH / ΔS: ScSqt1.53C, 15 °C, One Set of Sites fit
T1 construct: ScSqt1.53C (residues 53–431); (His)6 (C); made in house; host or cells: E. coli Rosetta(DE3)
T1 sequence (P35184 53-431): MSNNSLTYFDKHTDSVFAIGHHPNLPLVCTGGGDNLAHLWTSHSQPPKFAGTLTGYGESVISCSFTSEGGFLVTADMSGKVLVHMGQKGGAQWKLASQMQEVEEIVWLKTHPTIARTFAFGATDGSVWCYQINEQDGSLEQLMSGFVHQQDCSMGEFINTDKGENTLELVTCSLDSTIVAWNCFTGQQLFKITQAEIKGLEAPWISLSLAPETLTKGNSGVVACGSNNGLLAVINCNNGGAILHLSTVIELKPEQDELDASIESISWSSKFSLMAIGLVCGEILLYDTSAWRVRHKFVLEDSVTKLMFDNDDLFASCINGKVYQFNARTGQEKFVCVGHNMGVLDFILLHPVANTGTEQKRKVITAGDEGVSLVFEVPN
Experimental: ITC experiments were performed on a MicroCal ITC 2000 instrument (GE Healthcare). The following peptides, corresponding to the N-terminal 19 (without N-terminal methionine) or 20 amino acids of S. cerevisiae and C. thermophilum Rpl10, were synthesized with a free acid group at the C terminus (peptides&elephants): Rpl10(1–20) NH2-[…]-COOH, Rpl10(2–20) NH2-[…]-COOH, ctRpl10(1–20) NH2-[…]-COOH and ctRpl10(2–20) NH2-[…]-COOH. Peptides (1 mg each) were dissolved in the appropriate volume of gel-filtration buffer (20 mM HEPES–NaOH (pH 7.5), 200 mM NaCl, 20 mM KCl and 20 mM MgCl2), which was used for the purification of ScSqt1.53C and ctSqt1.52C, to obtain 1 mM stock solutions. Concentrations of proteins were determined by measuring the A280 using a NanoDrop Lite spectrophotometer (Thermo Scientific). For determination of the C. thermophilum Sqt1/L10-N binding, 200 μl of ctSqt1.52C (10 μM) was added to the sample cell and 2 μl of 100 μM solutions of the peptides was titrated in at 25 °C. For determination of the S. cerevisiae Sqt1/L10-N binding, 200 μl of ScSqt1.53C (100 μM) was added to the sample cell and 2 μl of 1 mM solutions of the peptides were titrated in at 15 °C. ITC data were processed using the Origin ITC Software (OriginLab) and thermodynamic parameters were obtained by fitting the data to a One Set of Sites binding model.

Sqt1-Flag = test: in vitro binding assay, Ni-affinity co-purification of Sqt1-Flag; design: species or system S. cerevisiae; details: co-expression in E. coli, C-terminally (His)6-tagged Rpl10, Ni-affinity, SDS–PAGE and western blot
Experimental: For in vitro binding assays between Rpl10-(His)6 and Sqt1-Flag or between ctRpl10-(His)6 and ctSqt1, proteins were co-expressed from pETDuet-1 (Novagen) in Rosetta(DE3) (Novagen) or BL21(DE3) (Novagen) E. coli cells, respectively. Cells were grown in 200 ml of lysogeny broth medium and protein expression was induced at an OD600 of ∼0.6–0.8 by the addition of isopropyl-β-D-thiogalactoside to a final concentration of 0.5 mM. After 5 h of growth at 30 °C, cells were harvested and stored at −80 °C. Cells were resuspended in 25 ml lysis buffer (50 mM Tris-HCl (pH 7.5), 200 mM NaCl, 1.5 mM MgCl2 and 5% glycerol) and lysed with a M-110L Microfluidizer (Microfluidics). The lysate (30 ml volume) was adjusted by the addition of 300 μl 10% NP-40 to 0.1% NP-40 (note that from here onwards all buffers contained 0.1% NP-40). An aliquot of 100 μl of total extract (sample T) was taken and mixed with 100 μl of 6 × loading buffer. The total extract was then centrifuged at 4 °C for 20 min at 14,000 r.p.m. The soluble extract was transferred to a 50-ml Falcon tube and, as above, an aliquot of 100 μl of soluble extract (sample S) was taken and mixed with 100 μl of 6 × loading buffer. The insoluble pellet fraction (sample P) was resuspended in 3 ml of lysis buffer, and 10 μl thereof were mixed with 90 μl of lysis buffer and 100 μl of 6 × loading buffer. […]

Sqt1 = test: Y2H interaction with Sqt1; type: binding, S. cerevisiae; details: reporter strain PJ69-4A, HIS3 and ADE2 reporters, 3 days at 30 °C
Experimental: For Y2H interaction assays, plasmids expressing bait proteins, fused to the Gal4 DNA-binding domain (G4BD), and prey proteins, fused to the Gal4 activation domain (G4AD), were co-transformed into reporter strain PJ69-4A. Y2H interactions were documented by spotting representative transformants in 10-fold serial dilution steps onto SC-Trp-Leu, SC-Trp-Leu-His (HIS3 reporter) and SC-Trp-Leu-Ade (ADE2 reporter) plates, which were incubated for 3 days at 30 °C. Growth on SC-Trp-Leu-His plates is indicative of a weak/moderate interaction, whereas only relatively strong interactions permit growth on SC-Trp-Leu-Ade plates.

Sqt1.53C-(His)6 [2] = target: T2, Sqt1.53C-(His)6 (S. cerevisiae, UniProt P35184 53-431); test: ITC
T2 chain: T1 sequence (P35184 53-431)

Sqt1.53C-(His)6 [3] = target: T3, Sqt1.53C-(His)6 (S. cerevisiae, UniProt P35184 53-431); test: ITC; 200 μl ScSqt1.53C (100 μM) in the cell, 2 μl injections of 1 mM peptide, 15 °C; 20 mM HEPES–NaOH (pH 7.5), 200 mM NaCl, 20 mM KCl, 20 mM MgCl2; One Set of Sites model; approximate Kd; details: both partners purified
T3 construct: Sqt1, S. cerevisiae, residues 53–431 (WD-repeat β-propeller domain); the ITC methods name only 'ScSqt1.53C'; the only free Sqt1.53C whose purification is described is Sqt1.53C-(His)6; also called ScSqt1.53C; source: E. coli Rosetta(DE3), purified (Ni-NTA, size-exclusion chromatography)
T3 sequence (looked up): T1 sequence (P35184 53-431)

ctSqt1.52C-(His)6 [4] = target: T4, ctSqt1.52C-(His)6 (Chaetomium thermophilum); test: ITC
T4 chain: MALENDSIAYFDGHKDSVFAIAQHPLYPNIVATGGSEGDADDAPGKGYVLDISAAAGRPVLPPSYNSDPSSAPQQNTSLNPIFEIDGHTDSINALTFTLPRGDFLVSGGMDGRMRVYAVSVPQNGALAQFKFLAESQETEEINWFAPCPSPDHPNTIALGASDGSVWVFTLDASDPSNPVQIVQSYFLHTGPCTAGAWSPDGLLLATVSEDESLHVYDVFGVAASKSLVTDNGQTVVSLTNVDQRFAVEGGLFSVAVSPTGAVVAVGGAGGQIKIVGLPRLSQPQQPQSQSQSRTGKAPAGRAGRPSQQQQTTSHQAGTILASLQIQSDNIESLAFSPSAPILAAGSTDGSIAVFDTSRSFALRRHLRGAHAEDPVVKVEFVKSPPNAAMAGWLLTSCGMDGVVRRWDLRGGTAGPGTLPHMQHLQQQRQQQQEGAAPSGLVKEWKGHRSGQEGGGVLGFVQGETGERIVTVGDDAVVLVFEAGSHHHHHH

ctSqt1.52C-(His)6 [5] = target: T4, ctSqt1.52C-(His)6; test: ITC; 200 μl ctSqt1.52C (10 μM) in the cell, 2 μl injections of 100 μM peptide, 25 °C; 20 mM HEPES–NaOH (pH 7.5), 200 mM NaCl, 20 mM KCl, 20 mM MgCl2; One Set of Sites model; approximate Kd

Molecule: ARRPARCYRYQKNKPYPKS [ScL10-N(2–20)]
- K [1]: 4.78E7±2.57E7
- N [1]: 1.076±0.0048
- ΔH [1]: −1.187E4±102.9
- ΔS [1]: −6.02
- preference of Sqt1 for the L10-N peptide lacking Met1 ([1]; vs peptide containing Met1, S. cerevisiae): only a slight preference

Molecule: L10-N: N-terminal residues of Rpl10 (general term; co-crystals and pull-downs use co-expressed Rpl10(1–20)-(His)6) (MARRPARCYRYQKNKPYPKS; not fully specified)
- co-purification with / interaction with Sqt1 (Sqt1-Flag): required and sufficient for a robust interaction both with full-length Sqt1 and its β-propeller domain

Molecule: MARRPARCYRYQKNKPYPKS [ScL10-N(1-20)]
- K [1]: 2.33E7±1.79E7
- N [1]: 1.09±0.00692
- ΔH [1]: −1.101E4 +/−158.6
- ΔS [1]: −4.45

Molecule: amino acids 1–20 of Rpl10: amino acids 1–20 of Rpl10, Y2H bait fused to G4BD (MARRPARCYRYQKNKPYPKS; also: fused to Gal4 DNA-binding domain; UniProt P41805 1-20, looked up, fragment)
- Y2H interaction with Sqt1 (Sqt1): sufficient to mediate the interaction with Sqt1

B1: Rpl10(1–20) peptide (peptide)
peptide: MARRPARCYRYQKNKPYPKS
notes: Rpl10 (uL16), S. cerevisiae, N-terminal 20 amino acids; free amino group at the N terminus, free acid group at the C terminus; also called ScL10-N peptide including Met1 (amino acids 1–20); source: synthetic peptide (peptides&elephants)
- Ka (Sqt1.53C-(His)6 [2]): 2.33e+07 M⁻¹
- Kd (Sqt1.53C-(His)6 [3]): ~43 nM

Molecule: MARRPARCYRYCKNKPYPKS [ctRpl10(1–20) peptide]
- Ka (ctSqt1.52C-(His)6 [4]): 2.26e+06 M⁻¹
- Kd (ctSqt1.52C-(His)6 [5]): 442 nM

B2: Rpl10(2–20) peptide (peptide)
peptide: ARRPARCYRYQKNKPYPKS
notes: Rpl10 (uL16), S. cerevisiae, N-terminal 19 amino acids without the N-terminal methionine; free amino group at the N terminus, free acid group at the C terminus; also called ScL10-N peptide lacking Met1 (amino acids 2–20); source: synthetic peptide (peptides&elephants)
- Ka (Sqt1.53C-(His)6 [2]): 4.78e+07 M⁻¹
- Kd (Sqt1.53C-(His)6 [3]): ~21 nM

B3: Arg10 to glutamate: Rpl10 variant, Arg10 mutated to glutamate (protein, UniProt P41805 2-221, looked up, variant R10E)
Large ribosomal subunit …: ARRPARCYEYQKNKPYPKSRYNRAVPDSKIRIYDLGKKKATVDEFPLCVHLVSNELEQLSSEALEAARICANKYMTTVSGRDAFHLRVRVHPFHVLRINKMLSCAGADRLQQGMRGAWGKPHGLAARVDIGQIIFSVRTKDSNKDVVVEGLRRARYKFPGQQKIILSKKWGFTNLDRPEYLKKREAGEVKDDGAFVKFLSKKGSLENNIREFPEYFAAQA
- Y2H interaction with Sqt1 (Sqt1): abolished

B4: Arg4 to glutamate: Rpl10 variant, substitution of Arg4 to glutamate (protein, UniProt P41805 2-221, looked up, variant R4E)
Large ribosomal subunit …: B3 Large ribosomal subunit … with R3E, E9R
- Y2H interaction with Sqt1 (Sqt1): only slightly reduced the interaction with Sqt1

B5: first 64 amino acids of Rpl10: first 64 amino acids of Rpl10, Y2H bait (protein, UniProt P41805 1-64, looked up, fragment)
chain: MARRPARCYRYQKNKPYPKSRYNRAVPDSKIRIYDLGKKKATVDEFPLCVHLVSNELEQLSSEA
modifications: Y2H bait
notes: first 64 amino acids of Rpl10, Y2H bait
- Y2H interaction with Sqt1 (Sqt1): binds

B6: Rpl10-(His)6: C-terminally (His)6-tagged Rpl10 (protein)
chain: MARRPARCYRYQKNKPYPKSRYNRAVPDSKIRIYDLGKKKATVDEFPLCVHLVSNELEQLSSEALEAARICANKYMTTVSGRDAFHLRVRVHPFHVLRINKMLSCAGADRLQQGMRGAWGKPHGLAARVDIGQIIFSVRTKDSNKDVVVEGLRRARYKFPGQQKIILSKKWGFTNLDRPEYLKKREAGEVKDDGAFVKFLSKKGSLENNIREFPEYFAAQA
modifications: left off: (His)6, C-terminal, kept
notes: C-terminally (His)6-tagged Rpl10
- co-purification with / interaction with Sqt1 (Sqt1-Flag): efficient co-purification of Sqt1-Flag

Molecule: ARRPARCYRYCKNKPYPKS [ctRpl10(2–20) peptide]
- Ka (ctSqt1.52C-(His)6 [4]): 2.82e+07 M⁻¹
- Kd (ctSqt1.52C-(His)6 [5]): 35 nM
